Test results published in the supplement of paper PMC9732359.
± gives the uncertainty stated by the source.

Assay: protein stability index of a GFP-peptide fusion (yeast GPS) (PSI 1-4); higher = more stable; sorted into four equal gates, so the index is relative within each strain
Conditions: pdr5∆
Method in brief: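 Mid-log yeast cultures in leucine-free medium, carrying a pooled plasmid library, were sorted into four equal gates by their GFP/Cherry fluorescence ratio. Each plasmid expressed Cherry along with GFP fused upstream of a tiled 17-residue yeast protein peptide. Plasmids recovered from each gate were PCR-amplified and Illumina-sequenced, with reads assigned to strains by barcodes. The protein stability index was obtained by summing each gate's read frequency weighted by its gate number.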

Going from STVKVSDLNLTDRQKKL [YLR018C/POM34] to SVFMPLIFIACNDEDKD [ECM29], the protein stability index rises from 2.75 ± 0.048 to 2.93 ± 0.058.

Compared with SVFYTILRDYGPQEAAN [RPO31], SVHHARVLITQRHIAVG [RPS9A] is lower in protein stability index: 3.25 ± 0.094 for the first, 1.31 ± 0.14 for the second.

Going from SVLLHHKTMSIVGVLQD [RPT2] to SVLYQLSTSAFMEIVLE [YML031W/NDC1], the protein stability index rises from 1.51 ± 0.053 to 2.07 ± 0.055.

Same assay, conditions: san1∆

First: SKLSQEFLYPHLNFPNV [SNF12]
Second: SKMLDAASSQVSIVKLD [SNF12]
The protein stability index of the first is lower: 2.82 ± 0.069 for the first, 3.03 ± 0.096 for the second.

First: SKPAFSFGAKSDEKKDG [YJL041W/NSP1]
Second: SKPESSVLQLIVSEDHI [MED1]
The protein stability index of the first is higher: 3.25 ± 0.12 for the first, 2.06 ± 0.14 for the second.

SKQDASPKPYAVKYGLN [RPL8A] and SKQDVEALIEFIYDTEK [FAS2] are within error of each other in protein stability index: 3.23 ± 0.095 for the first, 3.04 ± 0.13 for the second.

First: SKSEFAHRIMLTNILRM [FAS2]
Second: SKYGMLLLRCDDRVDKK [POP3]
The protein stability index of the first is lower: 1.46 ± 0.14 for the first, 3.03 ± 0.076 for the second.

SLAATYSMISLQNCCII [ARP9] and SLDRVAWRTLVGVSHTN [CYT1] are within error of each other in protein stability index: 1.26 ± 0.099 for the first, 1.34 ± 0.11 for the second.

SLENNIREFPEYFAAQA [RPL10] and SLEQRQEVTKFAKANIG [RPN4] are within error of each other in protein stability index: 2.75 ± 0.05 for the first, 2.83 ± 0.11 for the second.

First: SLGFLQQSNKLHCCIQL [RPN3]
Second: SLHNTEKIMENKYPELL [AAR2]
The protein stability index of the first is lower: 1.86 ± 0.12 for the first, 3 ± 0.038 for the second.

Going from SLIENKKAKLVLIANDV [RPL8B] to SLKNDLPQFRSSIQESL [ECM29], the protein stability index rises from 2.99 ± 0.12 to 3.22 ± 0.077.

First: SLLLTNVIITGSTSLIE [ARP7]
Second: SLNFIPITASTSRVFAK [YML103C/NUP188]
The protein stability index of the first is lower: 1.66 ± 0.051 for the first, 2.06 ± 0.26 for the second.

First: SLNNSDSLISGVKQKIT [BRR2]
Second: SLPEELKKRYDLSYNFN [YMR129W/POM152]
The protein stability index of the first is lower: 1.61 ± 0.16 for the first, 2.9 ± 0.08 for the second.

SLPHFPKNSKTPQSKGF [RPO31] and SLQEDVSFDFNGVPGQA [MED8] are within error of each other in protein stability index: 2.67 ± 0.18 for the first, 2.64 ± 0.086 for the second.

Compared with SLQSCSVAVHFQYVIDE [SMC4], SLRSNVVVAETSPEKKD [YAR002W/NUP60] is higher in protein stability index: 1.47 ± 0.084 for the first, 2.21 ± 0.069 for the second.

First: SLSEFARRRQPTDQNNQ [SNF2]
Second: SLSIEENIPVALCKNRK [POP1]
The protein stability index of the first is higher: 3.1 ± 0.067 for the first, 2.75 ± 0.18 for the second.

First: SLTLSFIRHVAKLNYKN [ECM29]
Second: SLVEVVFYRGMTMQVAV [FAS1]
The protein stability index of the first is higher: 2.91 ± 0.054 for the first, 1.4 ± 0.11 for the second.

First: SMERKVQGAAPWDTSLE [MCD1]
Second: SMGSILLSFVLGVVFGR [YML031W/NDC1]
The protein stability index of the first is higher: 3.25 ± 0.087 for the first, 2.56 ± 0.055 for the second.

Compared with SMKYDNGVIIAADNLGS [PRE4], SMMSDGIEHFDIPPPAI [RPO31] is lower in protein stability index: 2.5 ± 0.13 for the first, 1.92 ± 0.17 for the second.

Compared with SMQTIAETIILSSAGKN [SRB5], SMSEEFKYVSVRYEEKR [BRR2] is higher in protein stability index: 1.8 ± 0.055 for the first, 3.12 ± 0.22 for the second.

Compared with SMVLFFVCLSCSHIFTS [RPB9], SNEAAKPSFSFPGKPVD [YOR098C/NUP1] is higher in protein stability index: 1.43 ± 0.14 for the first, 3.01 ± 0.038 for the second.

Going from SNFADSADYEILYEIRA [YDL116W/NUP84] to SNGEVLEVGKNNFCALY [RPN14], the protein stability index falls from 2.42 ± 0.19 to 1.64 ± 0.14.

First: SNGPRAAKKRRPAAKGK [RRP6]
Second: SNGSGIVAAGGGSGAAT [CSL4]
The protein stability index of the first is lower: 3.12 ± 0.08 for the first, 3.45 ± 0.11 for the second.

SNGVLNVDNQTSDLVKS [RPS17A] and SNIGNNSINNNNIKNGT [YDL088C/ASM4] are within error of each other in protein stability index: 3.06 ± 0.18 for the first, 2.85 ± 0.047 for the second.

Going from SNIPTLIEKLQGFSKDT [YDL116W/NUP84] to SNLEKLLFINSSKLVDV [YML103C/NUP188], the protein stability index falls from 3.01 ± 0.05 to 1.83 ± 0.12.

Going from SNMLGSNEDVMMTGAEQ [RPB3] to SNNQVIKMQRQFSQLND [MED6], the protein stability index falls from 3.26 ± 0.1 to 3.03 ± 0.064.

Going from SNQAVGQTWNFPEVFQV [SRB8] to SNSALFRAVGEGNAQLV [FAS1], the protein stability index falls from 3.11 ± 0.14 to 2.27 ± 0.096.

Compared with SNSANVSSPESEKNKRQ [ITC1], SNSNVTNPSSIFGGAGG [YOR098C/NUP1] is lower in protein stability index: 2.95 ± 0.036 for the first, 2.29 ± 0.052 for the second.

SNTDETKGENYQLVKTL [FAS2] and SNTEPIPRSNRHGSVVE [MED1] are within error of each other in protein stability index: 2.81 ± 0.076 for the first, 2.72 ± 0.17 for the second.

Going from SNVYLSLVNSYIIDSPQ [COB] to SPDKIGTFTADYSKPNL [SSN2], the protein stability index rises from 2.24 ± 0.071 to 2.65 ± 0.08.

First: SPELSLQRHLSLGIRPC [RRP43]
Second: SPMLSISNLTQEQVQDY [FAS1]
The protein stability index of the first is lower: 2.73 ± 0.052 for the first, 2.98 ± 0.05 for the second.

SPQLTAIIGLKSGTSHD [SNF12] and SPSPILLTSAGCKNGSF [NUT1] are within error of each other in protein stability index: 1.84 ± 0.12 for the first, 1.61 ± 0.24 for the second.

Going from SPTENGVFDPASYSKYL [RPL22B] to SPVQDWNLLRSLYIFFT [YML103C/NUP188], the protein stability index falls from 3.05 ± 0.066 to 2.25 ± 0.069.

SPVTGDNSPSEDFMDIP [SNF2] and SQIIARNEEILRDIGEC [SMC2] are within error of each other in protein stability index: 2.81 ± 0.17 for the first, 2.85 ± 0.062 for the second.

Compared with SQPFIKFLNFRPPNGIK [SSN2], SQSACREMALCRELHNK [SSN3] is higher in protein stability index: 2.23 ± 0.06 for the first, 2.55 ± 0.11 for the second.

First: SQTQLENANAANNGAAF [MED2]
Second: SQVVETHKVTDIYSHEY [YMR129W/POM152]
The protein stability index of the first is higher: 2.85 ± 0.053 for the first, 2.68 ± 0.073 for the second.

SRILKAQSRNVEIEKRI [YGR119C/NUP57] and SRKQKIAKTFTVDVSSP [RPL22A] are within error of each other in protein stability index: 2.98 ± 0.067 for the first, 2.95 ± 0.069 for the second.

Compared with SRPGQSGRCDGYILEGE [RPS8A], SRPLKKVKILEQIDENW [SWI3] is lower in protein stability index: 3.3 ± 0.17 for the first, 2.82 ± 0.072 for the second.

SRTDAVRCKDCGHRILL [RPC10] and SRTRAHAQSKREGRHSG [RPL19A] are within error of each other in protein stability index: 2.66 ± 0.13 for the first, 2.83 ± 0.042 for the second.

First: SSAAILGLGIAFAGSKN [RPN1]
Second: SSDALSKEKANFLETIA [SIR4]
The protein stability index of the first is higher: 2.03 ± 0.29 for the first, 1.38 ± 0.091 for the second.

Compared with SSHLSDNDFIINDFKKI [POP5], SSKAATPDTKNFFHAKK [SNF12] is higher in protein stability index: 2.75 ± 0.055 for the first, 2.99 ± 0.048 for the second.

Compared with SSNASFNNQGKLDLFKY [MED1], SSNCHVRQKIKTLKRMI [POP1] is lower in protein stability index: 2.71 ± 0.032 for the first, 1.42 ± 0.091 for the second.

First: SSNIAGTNPLSSDGAYT [SSN2]
Second: SSSANKLLQLFLTPMDS [YML103C/NUP188]
The protein stability index of the first is higher: 3.03 ± 0.062 for the first, 1.64 ± 0.085 for the second.

Compared with SSTDEESWFKALAGSEI [FAS1], SSTGNANTSNNLFGATA [YJL041W/NSP1] is higher in protein stability index: 3.11 ± 0.11 for the first, 3.3 ± 0.051 for the second.

Compared with SSVKCFGPIKVELPTKE [FAS1], SSWQIYSDENDPSISNN [RRP4] is higher in protein stability index: 2.56 ± 0.057 for the first, 3.06 ± 0.072 for the second.

Going from STGPTGAVSLNPSITRL [RRP4] to STKFDYPPMPFDGFLFG [FAS1], the protein stability index falls from 2.88 ± 0.042 to 2.68 ± 0.063.

Going from STKLSRPFDSFGKLLQA [ITC1] to STKSNKAKNPLTHSTPK [RPL8B], the protein stability index rises from 2.35 ± 0.057 to 2.94 ± 0.058.

STQELQTRAKLLDNEIR [RPT5] and STQPSFAWSKPSTGSNL [YGR119C/NUP57] are within error of each other in protein stability index: 3.03 ± 0.083 for the first, 3.01 ± 0.048 for the second.

STSVGWKYEDVVAKLED [RPL16B] and STTFADCPVVPADPDIL [RPC40] are within error of each other in protein stability index: 2.48 ± 0.11 for the first, 2.41 ± 0.11 for the second.

STVKVSDLNLTDRQKKL [YLR018C/POM34] showed a protein stability index of 2.79 ± 0.047.
